Measured values as given in article PMC10786891, “Massively parallel profiling of RNA-targeting CRISPR-Cas13d”.

T1: EsCas13d, nuclease-dead (Eubacterium siraeum, UniProt B0MS50, R295A;H300A;R849A;H854A)
T1 sequence: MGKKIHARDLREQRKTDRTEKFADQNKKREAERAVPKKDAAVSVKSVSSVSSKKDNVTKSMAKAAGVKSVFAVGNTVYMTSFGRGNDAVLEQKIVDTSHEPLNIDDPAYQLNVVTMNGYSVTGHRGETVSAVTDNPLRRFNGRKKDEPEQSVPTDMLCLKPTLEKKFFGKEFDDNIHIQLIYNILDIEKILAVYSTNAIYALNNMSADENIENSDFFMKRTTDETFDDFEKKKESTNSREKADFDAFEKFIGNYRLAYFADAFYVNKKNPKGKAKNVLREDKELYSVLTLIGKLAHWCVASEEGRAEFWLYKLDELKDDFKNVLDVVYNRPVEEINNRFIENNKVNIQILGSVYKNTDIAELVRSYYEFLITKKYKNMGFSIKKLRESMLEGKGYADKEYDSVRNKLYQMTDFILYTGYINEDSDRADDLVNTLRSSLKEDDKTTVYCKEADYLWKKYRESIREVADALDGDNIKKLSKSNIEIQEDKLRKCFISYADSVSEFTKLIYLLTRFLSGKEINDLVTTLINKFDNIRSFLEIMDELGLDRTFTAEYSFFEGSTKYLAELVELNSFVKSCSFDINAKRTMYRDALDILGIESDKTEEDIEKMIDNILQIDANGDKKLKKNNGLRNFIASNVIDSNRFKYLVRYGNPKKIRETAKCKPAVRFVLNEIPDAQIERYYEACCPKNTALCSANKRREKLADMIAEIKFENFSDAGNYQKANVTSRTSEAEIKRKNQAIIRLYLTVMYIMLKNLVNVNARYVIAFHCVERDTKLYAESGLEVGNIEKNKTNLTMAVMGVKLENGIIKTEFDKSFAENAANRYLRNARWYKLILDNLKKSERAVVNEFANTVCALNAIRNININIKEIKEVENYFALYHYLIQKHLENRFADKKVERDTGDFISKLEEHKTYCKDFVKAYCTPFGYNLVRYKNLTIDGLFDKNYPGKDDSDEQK


Molecular target: T1, EsCas13d, nuclease-dead
Experiment: crRNA (strand 1, pre-loaded); Mg2+; 40 mM Tris-HCl pH 7.5, 150 mM NaCl, 6 mM MgCl2, 1 mM DTT, 0.1% Tween-20, 0.2 mg/ml BSA; 25 C; 10 min per concentration, then washed
Conditions: tags: His6-TwinStrep-SUMO cleaved; N-terminal SNAP kept (SNAP-Surface 488); label: 3' end held by stalled T7 RNA polymerase

| Binder | Kd [nM] |
| --- | --- |
| target 1 MT 5'PFS UUG 3'PFS UCG (mixed) RNA 1: CACCCGUGCAAAAAUGCAGGGGUCUAAAACUGAGCGGAUAACCUCUCUAUGG RNA 2: GGGAAUGGAUCCACAUCUACGAAUUCUUGCCAUAGAGAGGUUAUCCGCUCAUCGAGAUCGGAAGAGCACACGU | 58.5 ± 22.5 |
| target 1 MT 5'PFS GAC 3'PFS UGU (mixed) RNA 1: CACCCGUGCAAAAAUGCAGGGGUCUAAAACUGAGCGGAUAACCUCUCUAUGG RNA 2: GGGAAUGGAUCCACAUCUACGAAUUCGACCCAUAGAGAGGUUAUCCGCUCAUGUAGAUCGGAAGAGCACACGU | 41.5 ± 12.5 |
| target 1 MT 5'PFS GGA 3'PFS CCU (mixed) RNA 1: CACCCGUGCAAAAAUGCAGGGGUCUAAAACUGAGCGGAUAACCUCUCUAUGG RNA 2: GGGAAUGGAUCCACAUCUACGAAUUCGGACCAUAGAGAGGUUAUCCGCUCACCUAGAUCGGAAGAGCACACGU | 10.3 ± 2.85 |
| target 1 C2U,A9G (mixed) RNA 1: CACCCGUGCAAAAAUGCAGGGGUCUAAAACUGAGCGGAUAACCUCUCUAUGG RNA 2: GGGAAUGGAUCCACAUCUACGAAUUCGUACCAUAGAGAGGUUGUCCGCUUACCGAGAUCGGAAGAGCACACGU | 15.4 ± 1.4 |
| target 1 MT 5'PFS UUA 3'PFS UCG (mixed) RNA 1: CACCCGUGCAAAAAUGCAGGGGUCUAAAACUGAGCGGAUAACCUCUCUAUGG RNA 2: GGGAAUGGAUCCACAUCUACGAAUUCUUACCAUAGAGAGGUUAUCCGCUCAUCGAGAUCGGAAGAGCACACGU | 13.6 ± 2.85 |
| target 1 MT 5'PFS UUA 3'PFS ACA (mixed) RNA 1: CACCCGUGCAAAAAUGCAGGGGUCUAAAACUGAGCGGAUAACCUCUCUAUGG RNA 2: GGGAAUGGAUCCACAUCUACGAAUUCUUACCAUAGAGAGGUUAUCCGCUCAACAAGAUCGGAAGAGCACACGU | 37 ± 13 |
| target 1 MT 5'PFS UUA 3'PFS ACG (mixed) RNA 1: CACCCGUGCAAAAAUGCAGGGGUCUAAAACUGAGCGGAUAACCUCUCUAUGG RNA 2: GGGAAUGGAUCCACAUCUACGAAUUCUUACCAUAGAGAGGUUAUCCGCUCAACGAGAUCGGAAGAGCACACGU | 21.8 ± 4.7 |
| target 1 MT 5'PFS GUC 3'PFS UGG (mixed) RNA 1: CACCCGUGCAAAAAUGCAGGGGUCUAAAACUGAGCGGAUAACCUCUCUAUGG RNA 2: GGGAAUGGAUCCACAUCUACGAAUUCGUCCCAUAGAGAGGUUAUCCGCUCAUGGAGAUCGGAAGAGCACACGU | 65 ± 15.5 |
| target 1 MT 5'PFS GGC 3'PFS CAG (mixed) RNA 1: CACCCGUGCAAAAAUGCAGGGGUCUAAAACUGAGCGGAUAACCUCUCUAUGG RNA 2: GGGAAUGGAUCCACAUCUACGAAUUCGGCCCAUAGAGAGGUUAUCCGCUCACAGAGAUCGGAAGAGCACACGU | 25.5 ± 8.5 |
| target 1 MT 5'PFS GUC 3'PFS UGC (mixed) RNA 1: CACCCGUGCAAAAAUGCAGGGGUCUAAAACUGAGCGGAUAACCUCUCUAUGG RNA 2: GGGAAUGGAUCCACAUCUACGAAUUCGUCCCAUAGAGAGGUUAUCCGCUCAUGCAGAUCGGAAGAGCACACGU | 13.2 ± 2.95 |
| target 1 MT 5'PFS UUA 3'PFS ACC (mixed) RNA 1: CACCCGUGCAAAAAUGCAGGGGUCUAAAACUGAGCGGAUAACCUCUCUAUGG RNA 2: GGGAAUGGAUCCACAUCUACGAAUUCUUACCAUAGAGAGGUUAUCCGCUCAACCAGAUCGGAAGAGCACACGU | ~22.5 |
| target 1 MT 5'PFS UUA 3'PFS UCA (mixed) RNA 1: CACCCGUGCAAAAAUGCAGGGGUCUAAAACUGAGCGGAUAACCUCUCUAUGG RNA 2: GGGAAUGGAUCCACAUCUACGAAUUCUUACCAUAGAGAGGUUAUCCGCUCAUCAAGAUCGGAAGAGCACACGU | 25 ± 6.5 |
| target 1 MT 5'PFS CAG 3'PFS CUG (mixed) RNA 1: CACCCGUGCAAAAAUGCAGGGGUCUAAAACUGAGCGGAUAACCUCUCUAUGG RNA 2: GGGAAUGGAUCCACAUCUACGAAUUCCAGCCAUAGAGAGGUUAUCCGCUCACUGAGAUCGGAAGAGCACACGU | 19 ± 7.5 |
